Experimental data as given in publication PMC10397247.
Values belong to the binder of their own block, whether it stands above or below them.

Experiments:
P11mSN = biological target: T1, P11mSN; experiment: two-hybrid library CCNG1;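 further: natural log of median RNA to DNA barcode read ratio; higher means stronger binding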
T1 chain: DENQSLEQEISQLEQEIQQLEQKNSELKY

P7mSN = biological target: T2, P7mSN; experiment: two-hybrid library CCNG1;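 further: natural log of median RNA to DNA barcode read ratio; higher means stronger binding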
T2 chain: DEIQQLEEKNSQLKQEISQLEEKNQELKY

P8mSN = biological target: T3, P8mSN; experiment: two-hybrid library CCNG1;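 further: natural log of median RNA to DNA barcode read ratio; higher means stronger binding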
T3 chain: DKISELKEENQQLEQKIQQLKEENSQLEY

P12mSN = biological target: T4, P12mSN; experiment: two-hybrid library CCNG1;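 further: natural log of median RNA to DNA barcode read ratio; higher means stronger binding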
T4 chain: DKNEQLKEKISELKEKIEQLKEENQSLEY

P3mSN = biological target: T5, P3mSN; experiment: two-hybrid library CCNG1
T5 chain: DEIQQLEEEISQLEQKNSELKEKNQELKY

P1mSN = biological target: T6, P1mSN; experiment: two-hybrid library CCNG1
T6 chain: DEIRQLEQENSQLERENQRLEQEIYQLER

P10mSN = biological target: T7, P10mSN; experiment: two-hybrid library CCNG1
T7 chain: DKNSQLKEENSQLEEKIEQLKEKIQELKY

P5mSN = biological target: T8, P5mSN; experiment: two-hybrid library CCNG1
T8 chain: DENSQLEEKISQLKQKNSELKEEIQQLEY

P6mSN = biological target: T9, P6mSN; experiment: two-hybrid library CCNG1
T9 chain: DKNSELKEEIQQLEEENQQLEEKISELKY

P4mSN = biological target: T10, P4mSN; experiment: two-hybrid library CCNG1
T10 chain: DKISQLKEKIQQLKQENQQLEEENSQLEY

P2mSN = biological target: T11, P2mSN; experiment: two-hybrid library CCNG1
T11 chain: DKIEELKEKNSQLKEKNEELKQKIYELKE

P9mSN = biological target: T12, P9mSN; experiment: two-hybrid library CCNG1
T12 chain: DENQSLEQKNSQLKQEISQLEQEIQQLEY

P12A = biological target: T13, P12A; experiment: two-hybrid library CCNG1
T13 chain: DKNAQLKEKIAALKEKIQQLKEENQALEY

P10A = biological target: T14, P10A; experiment: two-hybrid library CCNG1
T14 chain: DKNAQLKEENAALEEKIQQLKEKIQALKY

P4A = biological target: T15, P4A; experiment: two-hybrid library CCNG1
T15 chain: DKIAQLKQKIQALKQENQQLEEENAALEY

P2A = biological target: T16, P2A; experiment: two-hybrid library CCNG1
T16 chain: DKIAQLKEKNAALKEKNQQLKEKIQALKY

P5A = biological target: T17, P5A; experiment: two-hybrid library CCNG1
T17 chain: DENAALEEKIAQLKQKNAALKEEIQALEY

P7A = biological target: T18, P7A; experiment: two-hybrid library CCNG1
T18 chain: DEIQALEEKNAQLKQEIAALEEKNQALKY

P11A = biological target: T19, P11A; experiment: two-hybrid library CCNG1
T19 chain: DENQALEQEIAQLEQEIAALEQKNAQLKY

P1A = biological target: T20, P1A; experiment: two-hybrid library CCNG1
T20 chain: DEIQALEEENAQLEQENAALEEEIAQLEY

P8A = biological target: T21, P8A; experiment: two-hybrid library CCNG1
T21 chain: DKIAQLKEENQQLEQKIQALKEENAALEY

P6A = biological target: T22, P6A; experiment: two-hybrid library CCNG1
T22 chain: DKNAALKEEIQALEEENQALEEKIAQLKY

P9A = biological target: T23, P9A; experiment: two-hybrid library CCNG1
T23 chain: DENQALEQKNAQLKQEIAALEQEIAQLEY

P3A = biological target: T24, P3A; experiment: two-hybrid library CCNG1
T24 chain: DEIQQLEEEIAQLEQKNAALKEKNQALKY

P4SC2 [1] = biological target: T25, P4SC2; experiment: two-hybrid library CCNG1
T25 chain: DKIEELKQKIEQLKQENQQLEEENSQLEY

P4SC2 [2] = biological target: T25, P4SC2; experiment: two-hybrid library CCmax; conditions: mean of both orientations
Core_IIIN-es_KKKK = biological target: T26, Core_IIIN-es_KKKK; experiment: two-hybrid library CCmax; conditions: mean of both orientations
T26 chain: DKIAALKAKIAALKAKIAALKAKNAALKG

4H1017-AA = biological target: T27, 4H1017-AA; experiment: two-hybrid library CCmax
T27 chain: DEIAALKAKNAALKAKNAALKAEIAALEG

4H55-AA = biological target: T28, 4H55-AA; experiment: two-hybrid library CCmax; conditions: mean of both orientations
T28 chain: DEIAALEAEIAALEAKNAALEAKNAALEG

4H4033-AA = biological target: T29, 4H4033-AA; experiment: two-hybrid library CCmax; conditions: mean of both orientations
T29 chain: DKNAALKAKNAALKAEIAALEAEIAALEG

4H3922-AA = biological target: T30, 4H3922-AA; experiment: two-hybrid library CCmax; conditions: mean of both orientations
T30 chain: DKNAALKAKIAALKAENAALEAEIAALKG

4H2608-AA = biological target: T31, 4H2608-AA; experiment: two-hybrid library CCmax; conditions: mean of both orientations
T31 chain: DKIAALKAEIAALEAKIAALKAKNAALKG

4H481-AA = biological target: T32, 4H481-AA; experiment: two-hybrid library CCmax; conditions: mean of both orientations
T32 chain: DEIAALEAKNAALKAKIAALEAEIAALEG

4H1082-AA = biological target: T33, 4H1082-AA; experiment: two-hybrid library CCmax
T33 chain: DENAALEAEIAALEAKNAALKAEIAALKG

4H3664-AA = biological target: T34, 4H3664-AA; experiment: two-hybrid library CCmax; conditions: mean of both orientations
T34 chain: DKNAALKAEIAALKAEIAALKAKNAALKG

4H1103-AA = biological target: T35, 4H1103-AA; experiment: two-hybrid library CCmax; conditions: mean of both orientations
T35 chain: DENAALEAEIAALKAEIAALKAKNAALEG

4H2238-AA = biological target: T36, 4H2238-AA; experiment: two-hybrid library CCmax; conditions: mean of both orientations
T36 chain: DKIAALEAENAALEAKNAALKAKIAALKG

4H1198-AA = biological target: T37, 4H1198-AA; experiment: two-hybrid library CCmax; conditions: mean of both orientations
T37 chain: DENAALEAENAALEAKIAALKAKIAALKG

4H2935-AA = biological target: T38, 4H2935-AA; experiment: two-hybrid library CCmax; conditions: mean of both orientations
T38 chain: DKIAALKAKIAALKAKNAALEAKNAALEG

4H662-AA = biological target: T39, 4H662-AA; experiment: two-hybrid library CCmax; conditions: mean of both orientations
T39 chain: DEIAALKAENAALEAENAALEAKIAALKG

4H2614-AA = biological target: T40, 4H2614-AA; experiment: two-hybrid library CCmax; conditions: mean of both orientations
T40 chain: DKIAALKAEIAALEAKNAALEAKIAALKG

4H2513-AA = biological target: T41, 4H2513-AA; experiment: two-hybrid library CCmax; conditions: mean of both orientations
T41 chain: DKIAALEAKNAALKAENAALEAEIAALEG

4H369-AA = biological target: T42, 4H369-AA; experiment: two-hybrid library CCmax; conditions: mean of both orientations
T42 chain: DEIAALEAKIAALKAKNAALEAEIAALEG

4H2211-AA = biological target: T43, 4H2211-AA; experiment: two-hybrid library CCmax; conditions: mean of both orientations
T43 chain: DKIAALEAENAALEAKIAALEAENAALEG

4H327-AA = biological target: T44, 4H327-AA; experiment: two-hybrid library CCmax; conditions: mean of both orientations
T44 chain: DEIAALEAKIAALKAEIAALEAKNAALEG

4H1350-AA = biological target: T45, 4H1350-AA; experiment: two-hybrid library CCmax; conditions: mean of both orientations
T45 chain: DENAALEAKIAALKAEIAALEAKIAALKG

4H2726-AA = biological target: T46, 4H2726-AA; experiment: two-hybrid library CCmax; conditions: mean of both orientations
T46 chain: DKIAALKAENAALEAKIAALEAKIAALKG

4H1405-AA = biological target: T47, 4H1405-AA; experiment: two-hybrid library CCmax; conditions: mean of both orientations
T47 chain: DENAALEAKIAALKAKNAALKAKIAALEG

4H2536-AA = biological target: T48, 4H2536-AA; experiment: two-hybrid library CCmax; conditions: mean of both orientations
T48 chain: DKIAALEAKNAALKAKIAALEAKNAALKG

4H3625-AA = biological target: T49, 4H3625-AA; experiment: two-hybrid library CCmax; conditions: mean of both orientations
T49 chain: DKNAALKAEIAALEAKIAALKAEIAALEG

4H3605-AA = biological target: T50, 4H3605-AA; experiment: two-hybrid library CCmax; conditions: mean of both orientations
T50 chain: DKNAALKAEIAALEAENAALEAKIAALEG

- interaction score (P11mSN): -0.495
- interaction score (P7mSN): 0.521
- interaction score (P8mSN): -0.586
- interaction score (P12mSN): -0.911
- interaction score (P3mSN): -0.696
- interaction score (P1mSN): 0.0169
- interaction score (P10mSN): 0.0645
- interaction score (P5mSN): -0.891
- interaction score (P6mSN): -0.212
- interaction score (P4mSN): -0.959
- interaction score (P2mSN): -1.62
- interaction score (P9mSN): 0.647
Binder: DKNSQLKEENSQLEEKIEQLKEKIQELKY [P10mSN]

- interaction score (P12A): -0.26
- interaction score (P10A): -0.322
- interaction score (P4A): -0.619
- interaction score (P2A): -0.904
- interaction score (P5A): -0.424
- interaction score (P7A): 1.36
- interaction score (P11A): 0.405
- interaction score (P1A): 0.349
- interaction score (P8A): -0.507
- interaction score (P6A): 0.00329
- interaction score (P9A): 2.37
- interaction score (P3A): 0.616
Binder: DKNAQLKEENAALEEKIQQLKEKIQALKY [P10A]

- interaction score (P4SC2 [1]): 1.12
- interaction score (P4SC2 [2]): 0.206
Binder: DEIQQLEEEIRQLEQKNSQLKEKNQQLKY [P3SC2]

- interaction score (Core_IIIN-es_KKKK): 1.39
Binder: DEIAALEAEIAALEAEIAALEAENAALEG [Core_IIIN-es_EEEE]

- interaction score (4H1017-AA): -1.79
- interaction score (4H55-AA): -1.6
- interaction score (4H4033-AA): -2.3
- interaction score (4H3922-AA): -0.887
- interaction score (4H2608-AA): -1.64
- interaction score (4H481-AA): -1.63
- interaction score (4H1082-AA): -2.19
- interaction score (4H3664-AA): -1.53
- interaction score (4H1103-AA): -1.61
- interaction score (4H2238-AA): 1.64
- interaction score (4H1198-AA): 0.565
- interaction score (4H2935-AA): -3.83
- interaction score (4H662-AA): 2.48
- interaction score (4H2614-AA): 0.0732
- interaction score (4H2513-AA): -1.22
- interaction score (4H369-AA): -1.44
- interaction score (4H2211-AA): -1.35
- interaction score (4H327-AA): -1.46
- interaction score (4H1350-AA): -1.39
- interaction score (4H2726-AA): 0.98
- interaction score (4H1405-AA): -1.79
- interaction score (4H2536-AA): -1.48
- interaction score (4H3625-AA): -1.94
- interaction score (4H3605-AA): 0.203
Binder: DEIAALKAKNAALKAKNAALKAEIAALEG [4H1017-AA]
